Experiments:
[1] = target: Human L1CAM (purified protein) (human) (UniProt P32004); assay: BLI, Octet RED384; antibody captured on AHC sensor, human L1CAM 50-0.78 nM as analyte
[2] = target: T1, Mouse L1CAM on B16F1 cells (mouse, UniProt P11627 20-1260); assay: flow cytometry on B16F1 cells, antibody 10 ug/ml, FITC anti-human IgG Fc secondary
T1 construct: whole, on cells; also called mouse L1CAM-positive cells
Method: In order to examine whether the variant antibodies selectively bind to human and mouse L1CAM, flow cytometry was performed using various types of cells. In this regard, as a comparative antibody, the Ab417 antibody which binds to human L1 CAM and mouse L1 CAM was used.
CHO-DG44 (ATCC No. PTA-3356) cells that are known to express no human L1CAM were cultured and used as a negative control. Also, cells expressing human L1CAM, human ovarian carcinoma, SKOV3 (ATCC No. HTB-77) and human non-small cell lung carcinoma, NCI-H522 (AYCC NO. CRL-5810) were cultured. As cells expressing mouse L1CAM, a melanoma cell line, B16F1 (ATCC No. CRL-6323) was cultured. The cultured cells were harvested using a dissociation buffer or 0.05% trypsin (GIBCO) for CHO-DG44 cell, resuspended in 1% PBA solution, and placed on ice for 20 minutes. The cells were then added to round bottom polystyrene test tube (Falcon) at a density of 4×10⁵ cells per tube. The purified antibodies were diluted in PBA solution at a concentration of 10 ug/ml, and 100 μl was added to each tube and mixed well. The tubes were placed in 4° C. for 1 hour. The secondary antibody which specifically binds to the Fc region of human IgG and is covalently linked with FITC (Sigma) was added to each tube at a ratio of 1:2000. The plate was wrapped with foil to block light and allowed to react at 4° C. for 1 hour. A staining reagent PI (propidium iodide, Sigma) was added at a ratio of 1:200 to evaluate cell viability. After all reactions were completed, FITC and PI fluorescent signals were detected in the cells.

[3] = target: Human L1CAM (purified protein) (human) (UniProt P32004); assay: BLI (Octet RED384), antibody captured on AHC sensor, human L1CAM in solution; upper end told of the variants as a group, tied to Ab4H5 by the KD values of the same paragraph (0.2 nM against 8 pM)
[4] = target: Human L1CAM (purified protein) (human) (UniProt P32004); assay: competitive ELISA; antibody pre-incubated with soluble human L1CAM, free antibody detected on coated human L1CAM
[5] = target: Human L1CAM (purified protein) (human) (UniProt P32004); assay: competitive ELISA; lower end of the range, tied to Ab612 by Table 9
[6] = target: Human L1CAM (purified protein) (human) (UniProt P32004); assay: competitive ELISA; upper end of the range, tied to Ab2C2 by Table 9

T1 sequence (P11627 20-1260): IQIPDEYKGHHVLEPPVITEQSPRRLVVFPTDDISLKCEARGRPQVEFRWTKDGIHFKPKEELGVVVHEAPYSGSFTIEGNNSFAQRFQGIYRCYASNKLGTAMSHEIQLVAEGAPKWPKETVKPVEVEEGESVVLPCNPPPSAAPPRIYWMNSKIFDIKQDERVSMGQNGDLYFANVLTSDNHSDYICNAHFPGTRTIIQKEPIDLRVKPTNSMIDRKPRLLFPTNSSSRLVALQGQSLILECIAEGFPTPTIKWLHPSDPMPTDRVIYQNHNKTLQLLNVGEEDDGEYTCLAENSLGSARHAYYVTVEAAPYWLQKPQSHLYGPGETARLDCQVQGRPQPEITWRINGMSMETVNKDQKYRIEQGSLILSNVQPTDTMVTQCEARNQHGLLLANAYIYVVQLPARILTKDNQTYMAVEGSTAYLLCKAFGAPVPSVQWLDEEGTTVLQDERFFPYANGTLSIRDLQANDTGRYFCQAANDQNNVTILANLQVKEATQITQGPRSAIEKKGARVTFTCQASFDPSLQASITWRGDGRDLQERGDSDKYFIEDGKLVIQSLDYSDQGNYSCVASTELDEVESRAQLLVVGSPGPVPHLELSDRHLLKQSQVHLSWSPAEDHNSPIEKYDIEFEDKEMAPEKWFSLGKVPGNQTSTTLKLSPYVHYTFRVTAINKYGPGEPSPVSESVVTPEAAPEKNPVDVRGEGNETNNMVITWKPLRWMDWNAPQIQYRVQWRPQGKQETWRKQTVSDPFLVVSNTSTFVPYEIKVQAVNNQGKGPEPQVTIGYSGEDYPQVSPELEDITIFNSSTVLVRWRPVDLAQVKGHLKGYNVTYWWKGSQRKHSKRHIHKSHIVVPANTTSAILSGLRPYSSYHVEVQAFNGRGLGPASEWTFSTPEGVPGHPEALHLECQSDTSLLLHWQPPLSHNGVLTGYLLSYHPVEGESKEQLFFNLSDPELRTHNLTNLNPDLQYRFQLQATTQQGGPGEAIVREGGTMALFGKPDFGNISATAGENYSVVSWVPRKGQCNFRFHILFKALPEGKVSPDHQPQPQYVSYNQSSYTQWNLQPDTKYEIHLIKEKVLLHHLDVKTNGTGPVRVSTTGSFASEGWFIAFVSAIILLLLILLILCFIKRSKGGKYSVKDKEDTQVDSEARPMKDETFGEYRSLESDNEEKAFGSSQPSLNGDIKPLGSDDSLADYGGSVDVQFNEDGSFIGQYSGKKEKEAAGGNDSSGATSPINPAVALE

Row | Binder | Kd [1] [pM] | koff [1] [s⁻¹] | kon [1] [M⁻¹ s⁻¹] | binding result [2] | fold increased affinity compared to Ab417 [3] [fold] | Affinity (K) [4] [pM] | fold higher binding affinity than Ab417 [5] [fold] | fold higher binding affinity than Ab417 [6] [fold]
1 | Ab4H5 antibody (antibody, human IgG1, kappa, V domains shown, Whole human IgG1, kappa; also called Anti-L1CAM ("Ab4H5"); Ab4H5 mutant) VH: EVQLVESGGGVVQPGGSLRLSCAASGFTFSRFGMHWVRQAPGKGLEWVAFISNEGSNKYYADSVKGRFTISRDNSANTLYLQMNSLRAEDTAVYYCARGRAYGSGSLFDPWGQGTLVTVSS VL: DIQLTQSPSSLSASVGDRVTITCRASRTISSYVNWYRQRPGKAPESLIYAASNLHSGVPSRFSGSGSGTDFTLTISSLQPEDFATYYCQQAGFYTPWTFGQGTKLEIKR | 8.22 | 2.98e-06 | 363000 | binds | 25 | 60 | – | –
2 | Ab5D12 antibody (antibody, human IgG1, kappa, V domains shown, Whole human IgG1, kappa; also called Anti-L1CAM ("Ab5D12"); Ab5D12 mutant) VH: EVQLVESGGGVVQPGGSLRLSCAASGFTFSRFGMHWVRQAPGKGLEWVAFISNEGSNKYYADSVKGRFTISRDNSANTLYLQMNSLRAEDTAVYYCARGRAYGSGSLFDPWGQGTLVTVSS VL: DIQLTQSPSSLSASVGDRVTITCRASRTISSYVNWYRQRPGKAPESLIYAASNLHSGVPSRFSGSGSGTDFTLTISSLQPEDFATYYCQQSLVWYPWTFGQGTKLEIKR | 96 | 3.94e-05 | 411000 | binds | – | 120 | – | –
3 | Ab612 antibody (antibody, human IgG1, kappa, V domains shown, Whole human IgG1, kappa, purified on protein A; also called Anti-L1CAM ("Ab612")) VH: EVQLVESGGGVVQPGGSLRLSCAASGFTFSRFGMHWVRQAPGKGLEWVAFISNEGSNKYYADSVKGRFTISRDNSANTLYLQMNSLRAEDTAVYYCARGRAYGSGSLFDPWGQGTLVTVSS VL: DIQLTQSPSSLSASVGDRVTITCRASRTISSYVNWYRQRPGKAPESLIYAASNLHSGVPSRFSGSGSGTDFTLTISSLQPEDFATYYCQQSIGRGPVTFGQGTKLEIKR | 105 | 3.28e-05 | 313000 | binds | – | 260 | 2 to 10 | –

Results, then the binder that gave them:

Row | Kd [1] [pM] | koff [1] [s⁻¹] | kon [1] [M⁻¹ s⁻¹] | binding result [2] | fold increased affinity compared to Ab417 [3] [fold] | Affinity (K) [4] [pM] | fold higher binding affinity than Ab417 [5] [fold] | fold higher binding affinity than Ab417 [6] [fold] | Binder
4 | < 1 | < 1e-07 | 344000 | binds | – | 50 | – | 2 to 10 | Ab2C2 antibody (antibody, human IgG1, kappa, V domains shown, Whole human IgG1, kappa; also called Anti-L1CAM ("Ab2C2"); Ab2C2 mutant) VH: EVQLVESGGGVVQPGGSLRLSCAASGFTFSRFGMHWVRQAPGKGLEWVAFISNEGSNKYYADSVKGRFTISRDNSANTLYLQMNSLRAEDTAVYYCARGRAYGSGSLFDPWGQGTLVTVSS VL: DIQLTQSPSSLSASVGDRVTITCRASRTISSYVNWYRQRPGKAPESLIYAASNLHSGVPSRFSGSGSGTDFTLTISSLQPEDFATYYCQQAGFYSPWTFGQGTKLEIKR
5 | 74.1 | 2.77e-05 | 373000 | binds | – | 60 | – | – | Ab4H6 antibody (antibody, human IgG1, kappa, V domains shown, Whole human IgG1, kappa; also called Anti-L1CAM ("Ab4H6"); Ab4H6 mutant) VH: EVQLVESGGGVVQPGGSLRLSCAASGFTFSRFGMHWVRQAPGKGLEWVAFISNEGSNKYYADSVKGRFTISRDNSANTLYLQMNSLRAEDTAVYYCARGRAYGSGSLFDPWGQGTLVTVSS VL: DIQLTQSPSSLSASVGDRVTITCRASRTISSYVNWYRQRPGKAPESLIYAASNLHSGVPSRFSGSGSGTDFTLTISSLQPEDFATYYCQQSLHFYPWTFGQGTKLEIKR
